Experimental data from publication PMC7069705 (Science Advances, 2019).
One block for each binder: values may come before it.

B1: KAP3 (separately purified) (natural protein, mouse, UniProt P70188-1 1-793, looked up)
chain: MQGEDARYLKRKVKGGNIDVHPSEKALIVQYEVEATILGEMGDPMLGERKECQKIIRLKSLNANTDITSLARKVVEECKLIHPSKLSEVEQLLYYLQNRRDSLPGKEKKEKSSKPKDPPPFEGMEIDEVANINDMDEYIELLYEDIPDKVRGSALILQLARNPDNLEELLLNETALGALARVLREDWKQSVELATNIIYIFFCFSSFSHFHGLITHYKIGALCMNIIDHELKRHELWQEELSKKKKAVDEDLENQTLRKDYDKTFKKYQGLVVKQEQLLRVALYLLLNLAEDTRTELKMRNKNIVHMLVKALDRDNFELLILVVSFLKKLSIFMENKNDMVEMDIVEKLVKMIPCEHEDLLNITLRLLLNLSFDTGLRNKMVQVGLLPKLTALLGNENYKQIAMCVLYHISMDDRFKSMFAYTDCIPQLMKMLFECSDERIDLELISFCINLAANKRNVQLICEGNGLKMLMKRALKLKDPLLMKMIRNISQHDGPTKNLFIDYVGDLAAQISSDEEEEFVIECLGTLANLTIPDLDWELVLKEYKLVPFLKDKLKPGAAEDDLVLEVVIMIGTVSMDDSCAALLAKSGIIPALIELLNAQQEDDEFVCQIIYVFYQMVFHQATRDVIIKETQAPAYLIDLMHDKNNEIRKVCDNTLDIIAEYDEEWAKKIQSEKFRWHNSQWLEMVESRQLDESEQYLYGDDRIEPYIHEGDILERPDLFYNSDGLITSEGAISPDFFNDFHLQNGDVVGQHAFPGSLGMDGFGQPLGILGRPATAYGFRPDEPYYYSFGSR

How the values were obtained:
[1] = molecular target: full-length APC–green fluorescent protein (GFP) (mouse, UniProt Q61315 1-2845); assay: MST
full-length APC–green fluorescent protein (GFP), sequence (Q61315 whole entry): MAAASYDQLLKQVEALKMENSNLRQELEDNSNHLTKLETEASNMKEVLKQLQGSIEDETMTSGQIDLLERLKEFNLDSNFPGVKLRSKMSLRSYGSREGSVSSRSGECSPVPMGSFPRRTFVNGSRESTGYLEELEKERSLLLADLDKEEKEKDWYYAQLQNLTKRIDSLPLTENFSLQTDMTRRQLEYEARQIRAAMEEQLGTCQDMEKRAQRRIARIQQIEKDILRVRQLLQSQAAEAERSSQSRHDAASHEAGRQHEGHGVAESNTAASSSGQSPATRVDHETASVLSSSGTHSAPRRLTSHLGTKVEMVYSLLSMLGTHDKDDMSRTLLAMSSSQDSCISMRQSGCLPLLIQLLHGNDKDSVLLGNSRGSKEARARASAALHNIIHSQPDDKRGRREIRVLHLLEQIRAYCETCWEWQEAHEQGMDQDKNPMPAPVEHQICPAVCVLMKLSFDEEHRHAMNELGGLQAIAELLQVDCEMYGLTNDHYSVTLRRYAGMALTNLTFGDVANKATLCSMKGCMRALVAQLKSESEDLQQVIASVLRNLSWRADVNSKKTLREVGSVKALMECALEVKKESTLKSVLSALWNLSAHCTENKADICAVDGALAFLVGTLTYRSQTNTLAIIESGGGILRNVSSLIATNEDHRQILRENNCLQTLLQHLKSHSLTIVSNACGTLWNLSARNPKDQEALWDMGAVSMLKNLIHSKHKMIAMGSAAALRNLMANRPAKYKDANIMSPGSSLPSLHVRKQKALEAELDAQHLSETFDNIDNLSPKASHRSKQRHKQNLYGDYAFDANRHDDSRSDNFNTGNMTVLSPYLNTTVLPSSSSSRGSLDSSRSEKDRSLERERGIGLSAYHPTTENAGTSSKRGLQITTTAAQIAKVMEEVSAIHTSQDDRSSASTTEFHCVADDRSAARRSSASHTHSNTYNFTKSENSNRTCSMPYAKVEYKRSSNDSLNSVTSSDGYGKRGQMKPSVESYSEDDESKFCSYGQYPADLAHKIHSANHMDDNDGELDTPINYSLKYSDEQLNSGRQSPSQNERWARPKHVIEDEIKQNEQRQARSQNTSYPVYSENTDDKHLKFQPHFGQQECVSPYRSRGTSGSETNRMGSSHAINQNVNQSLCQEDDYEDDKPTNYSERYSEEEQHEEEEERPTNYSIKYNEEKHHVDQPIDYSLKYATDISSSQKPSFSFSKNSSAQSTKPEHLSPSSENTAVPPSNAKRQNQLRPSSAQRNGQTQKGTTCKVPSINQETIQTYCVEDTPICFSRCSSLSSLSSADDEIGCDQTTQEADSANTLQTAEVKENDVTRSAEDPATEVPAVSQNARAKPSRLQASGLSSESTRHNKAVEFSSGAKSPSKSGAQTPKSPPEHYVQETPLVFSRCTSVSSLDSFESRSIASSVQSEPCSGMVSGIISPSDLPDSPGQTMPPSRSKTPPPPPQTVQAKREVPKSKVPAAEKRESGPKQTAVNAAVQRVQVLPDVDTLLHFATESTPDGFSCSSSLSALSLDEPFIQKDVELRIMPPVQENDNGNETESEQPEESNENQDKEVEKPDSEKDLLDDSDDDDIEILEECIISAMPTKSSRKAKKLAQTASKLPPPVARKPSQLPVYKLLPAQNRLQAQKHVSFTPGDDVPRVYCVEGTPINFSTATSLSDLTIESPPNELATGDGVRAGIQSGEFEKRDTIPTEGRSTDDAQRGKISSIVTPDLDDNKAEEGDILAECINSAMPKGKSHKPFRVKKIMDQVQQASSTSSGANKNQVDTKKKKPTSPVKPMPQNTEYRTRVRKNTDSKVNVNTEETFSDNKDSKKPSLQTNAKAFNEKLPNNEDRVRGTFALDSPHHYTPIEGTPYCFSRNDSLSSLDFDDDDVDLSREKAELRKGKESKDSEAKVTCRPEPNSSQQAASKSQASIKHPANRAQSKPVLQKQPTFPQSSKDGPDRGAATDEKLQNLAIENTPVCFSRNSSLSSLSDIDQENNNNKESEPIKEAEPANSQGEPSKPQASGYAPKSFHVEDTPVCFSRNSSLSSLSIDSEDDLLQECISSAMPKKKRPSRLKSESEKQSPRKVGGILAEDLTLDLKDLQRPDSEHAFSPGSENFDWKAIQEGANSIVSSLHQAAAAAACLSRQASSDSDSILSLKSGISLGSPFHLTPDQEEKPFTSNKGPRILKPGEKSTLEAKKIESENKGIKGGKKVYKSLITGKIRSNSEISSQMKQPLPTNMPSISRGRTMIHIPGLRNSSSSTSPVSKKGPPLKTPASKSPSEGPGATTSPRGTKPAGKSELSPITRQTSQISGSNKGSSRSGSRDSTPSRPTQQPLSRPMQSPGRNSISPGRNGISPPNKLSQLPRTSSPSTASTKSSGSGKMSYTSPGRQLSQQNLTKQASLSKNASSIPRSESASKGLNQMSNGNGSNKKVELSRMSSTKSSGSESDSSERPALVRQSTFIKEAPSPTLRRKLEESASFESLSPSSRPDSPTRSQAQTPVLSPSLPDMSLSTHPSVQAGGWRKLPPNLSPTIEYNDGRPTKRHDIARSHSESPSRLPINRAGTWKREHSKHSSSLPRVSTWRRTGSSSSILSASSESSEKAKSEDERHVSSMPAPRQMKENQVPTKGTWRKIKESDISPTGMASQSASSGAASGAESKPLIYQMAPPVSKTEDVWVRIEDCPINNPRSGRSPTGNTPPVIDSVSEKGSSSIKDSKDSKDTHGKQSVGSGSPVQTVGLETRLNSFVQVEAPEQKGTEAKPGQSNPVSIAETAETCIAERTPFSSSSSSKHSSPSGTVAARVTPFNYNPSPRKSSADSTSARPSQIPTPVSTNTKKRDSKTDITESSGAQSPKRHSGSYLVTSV

[2] = molecular target: the molecule itself; assay: single-molecule photobleaching step analysis
SEC-MALS = molecular target: the molecule itself; assay: SEC-MALS
[3] = molecular target: B1; assay: SEC-MALS

Binder: B1
binding result [1]: binds

B2: homodimeric SNAP-KIF3A labeled with Alexa647 or TMR (natural protein, mouse, UniProt P28741 1-701, looked up)
chain: MPINKSEKPESCDNVKVVVRCRPLNEREKSMCYRQAVSVDEMRGTITVHKTDSSNEPPKTFTFDTVFGPESKQLDVYNLTARPIIDSVLEGYNGTIFAYGQTGTGKTFTMEGVRAVPGLRGVIPNSFAHIFGHIAKAEGDTRFLVRVSYLEIYNEEVRDLLGKDQTQRLEVKERPDVGVYIKDLSAYVVNNADDMDRIMTLGHKNRSVGATNMNEHSSRSHAIFTITIECSEKGVDGNMHVRMGKLHLVDLAGSERQAKTGATGQRLKEATKINLSLSTLGNVISALVDGKSTHVPYRNSKLTRLLQDSLGGNSKTMMCANIGPADYNYDETISTLRYANRAKNIKNKARINEDPKDALLRQFQKEIEELKKKLEEGEEVSGSDISGSEEDDEEGELGEDGEKKKKRRDQAGKKKVSPDKMVEMQAKIDEERKALETKLDMEEEERNKARAELERREKDLLKAQQEHQSLLEKLSALEKKVIVGGVDLLAKAEEQEKLLEESNMELEERRRRAEQLRKELEEKEQERLDIEEKYTSLQEEAQGKTKKLKKVWTMLMAAKSEMADLQQEHQREIEGLLENIRQLSRELRLQMLIIDNFIPQDYQEMIENYVHWNEDIGEWQLKCVAYTGNNMRKQTPVPDKKERDPFEVDLSHVYLAYTEESLRQSLMKLERPRTSKGKARPKMGRRKRSAKPETVIDSLLQ
modifications: Alexa647 or TMR dye on the SNAP tag
stoichiometry N [2]: 2

binding result [3]: binds
B3: KIF3A (homodimer, separately purified) (natural protein, mouse, UniProt P28741 1-701, looked up)
chain: MPINKSEKPESCDNVKVVVRCRPLNEREKSMCYRQAVSVDEMRGTITVHKTDSSNEPPKTFTFDTVFGPESKQLDVYNLTARPIIDSVLEGYNGTIFAYGQTGTGKTFTMEGVRAVPGLRGVIPNSFAHIFGHIAKAEGDTRFLVRVSYLEIYNEEVRDLLGKDQTQRLEVKERPDVGVYIKDLSAYVVNNADDMDRIMTLGHKNRSVGATNMNEHSSRSHAIFTITIECSEKGVDGNMHVRMGKLHLVDLAGSERQAKTGATGQRLKEATKINLSLSTLGNVISALVDGKSTHVPYRNSKLTRLLQDSLGGNSKTMMCANIGPADYNYDETISTLRYANRAKNIKNKARINEDPKDALLRQFQKEIEELKKKLEEGEEVSGSDISGSEEDDEEGELGEDGEKKKKRRDQAGKKKVSPDKMVEMQAKIDEERKALETKLDMEEEERNKARAELERREKDLLKAQQEHQSLLEKLSALEKKVIVGGVDLLAKAEEQEKLLEESNMELEERRRRAEQLRKELEEKEQERLDIEEKYTSLQEEAQGKTKKLKKVWTMLMAAKSEMADLQQEHQREIEGLLENIRQLSRELRLQMLIIDNFIPQDYQEMIENYVHWNEDIGEWQLKCVAYTGNNMRKQTPVPDKKERDPFEVDLSHVYLAYTEESLRQSLMKLERPRTSKGKARPKMGRRKRSAKPETVIDSLLQ
stoichiometry N (SEC-MALS): 2
